This data set concerns the molecule itself. The data set is described as follows: two-step photobleaching of single molecules.

Usually stoichiometry N stands for a count of units in the complex or per binding partner.

B1: GFP-tagged MCAK containing aa 187-730 (GMΔNT) (domain or fragment, UniProt Q91636 187-730, looked up)
chain: GRNNQGRRKSNIVKEMEKMKNKREEQRAQNYERRMKRAQDYDTSVPNWEFGKMIKEFRATMDCHRISMADPAEEHRICVCVRKRPLNKQELSKKEIDIISVPSKNIVLVHEPKLKVDLTKYLENQAFRFDFSFDETATNEVVYRFTARPLVQSIFEGGKATCFAYGQTGSGKTHTMGGDFSGKSQNVSKGVYAFASRDVFLLLDQPRYKHLDLDVFVTFFEIYNGKVFDLLNKKTKLRVLEDAKQEVQVVGLLEKQVISADDVFKMIEIGSACRTSGQTFANTSSSRSHACLQIILRRGSKLHGKFSLVDLAGNERGVDTASADRITRMEGAEINRSLLALKECIRALGQNKSHTPFRESKLTQILRDSFIGENSRTCMIAMLSPGFNSCEYTLNTLRYADRVKELSPQNAETNDDNLQMEDSGGSHASIEGLQLQDDFLLKDEELSTHNSFQDALNRVGELEDKAVDELRELVQKEPEWTNLLQMTEQPDYDLENFVMQAEYLIQERSKVLIALGDSINSLRLALQVEEQASKQISKKKRSNK
For B1, the “stoichiometry N” value is 2.

These data come from paper PMC3897551 (Current biology : CB, 2013).
